Paper PMC9022993, “Distinct phosphorylation signals drive acceptor versus free ubiquitin chain targeting by parkin” (Biochemical Journal, 2022)

Assays:
[1] = biological target: T1, His6-Smt3-Parkin (full-length human parkin, tag kept, labelled with RED-tris-NTA) (human, UniProt O60260 1-465, RED-tris-NTA dye bound to the His tag (Monolith His-Tag Labelling Kit RED-tris-NTA 2nd Generation)); experiment: MST; His6-Smt3-Parkin constructs labelled with RED-tris-NTA; unlabelled partner in up to 16 1:1 serial dilutions (from 50 µM for Miro1^181-579); 25°C; PBS-T (PBS 1x, 0.05% Tween 20); 1:1 fit; details: both partners purified
T1 construct: human parkin, full-length; Used for MST only; source: E. coli BL21(DE3), purified; not shown: His6, N-terminal, kept; Smt3, N-terminal, kept
T1 sequence (O60260 whole entry): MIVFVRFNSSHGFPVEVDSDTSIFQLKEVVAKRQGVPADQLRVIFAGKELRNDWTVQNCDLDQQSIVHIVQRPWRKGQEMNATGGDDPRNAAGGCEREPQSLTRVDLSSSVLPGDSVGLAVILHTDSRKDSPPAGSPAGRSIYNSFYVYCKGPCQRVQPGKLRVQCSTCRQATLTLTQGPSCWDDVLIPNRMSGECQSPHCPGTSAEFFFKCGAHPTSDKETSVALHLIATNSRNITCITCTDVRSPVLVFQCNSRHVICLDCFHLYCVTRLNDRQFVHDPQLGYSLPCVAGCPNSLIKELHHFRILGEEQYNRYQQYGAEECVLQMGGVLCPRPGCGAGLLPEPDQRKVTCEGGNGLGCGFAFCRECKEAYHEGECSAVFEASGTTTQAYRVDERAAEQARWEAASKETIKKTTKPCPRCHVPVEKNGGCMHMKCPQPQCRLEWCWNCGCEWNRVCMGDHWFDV

[2] = biological target: T2, human parkin, full-length, affinity tag cleaved (human, UniProt O60260 1-465); experiment: MST + ITC; parkin with CISD1 (Supplementary Fig. S2); the text names 'either MST or ITC' and does not tell which was used for CISD1; details: both partners purified
T2 construct: human parkin (RBR E3 ubiquitin ligase), full-length; the MST used the uncleaved His6-Smt3 form; also called unphosphorylated parkin; source: E. coli BL21(DE3), purified (Ni-NTA HisTrap FF, Ulp1 cleavage, gel filtration); not shown: His6, N-terminal, cleaved; Smt3, N-terminal, cleaved
T2 sequence (O60260 whole entry): as above

B1: Miro1^181-579 (near full-length, soluble construct of Miro1 that lacks only its GTPase1 domain) (domain or fragment, human, UniProt Q8IXI2 181-579, looked up)
chain: MKPACIKALTRIFKISDQDNDGTLNDAELNFFQRICFNTPLAPQALEDVKNVVRKHISDGVADSGLTLKGFLFLHTLFIQRGRHETTWTVLRRFGYDDDLDLTPEYLFPLLKIPPDCTTELNHHAYLFLQSTFDKHDLDRDCALSPDELKDLFKVFPYIPWGPDVNNTVCTNERGWITYQGFLSQWTLTTYLDVQRCLEYLGYLGYSILTEQESQASAVTVTRDKKIDLQKKQTQRNVFRCNVIGVKNCGKSGVLQALLGRNLMRQKKIREDHKSYYAINTVYVYGQEKYLLLHDISESEFLTEAEIICDVVCLVYDVSNPKSFEYCARIFKQHFMDSRIPCLIVAAKSDLHEVKQEYSISPTDFCRKHKMPPPQAFTCNTADAPSKDIFVKLTTMAMY
notes: source: E. coli BL21(DE3); purified as previously described by Kumar et al. [11]
[1]
  Kd: > 100 µM

B2: human CISD1 (residues 32-108), entire extramembranous portion (domain or fragment, UniProt Q9NZ45 32-108, looked up)
chain: KRFYVKDHRNKAMINLHIQKDNPKIVHAFDMEDLGDKAVYCRCWRSKKFPFCDGAHTKHNEETGDNVGPLIIKKKET
notes: human CISD1 (MitoNEET) lacking only its transmembrane domain, residues 32-108; also called MitoNEET; source: E. coli BL21(DE3) with FeCl3 in the media, purified (Ni-NTA, TEV cleavage, gel filtration); not shown: His6, N-terminal, cleaved
[2]
  Kd: > 100 µM
